Target: Mouse TREM-1 analyte (in house, his tagged) (mouse) (UniProt Q9JKE2)
Assay: SPR (Biacore T200, 25 C), MAB1187 captured on anti rat Fc, his tagged mouse TREM-1 as analyte, 1:1 model

Sequence of UniProt Q9JKE2 (Q9JKE2 21-202 limits assumed): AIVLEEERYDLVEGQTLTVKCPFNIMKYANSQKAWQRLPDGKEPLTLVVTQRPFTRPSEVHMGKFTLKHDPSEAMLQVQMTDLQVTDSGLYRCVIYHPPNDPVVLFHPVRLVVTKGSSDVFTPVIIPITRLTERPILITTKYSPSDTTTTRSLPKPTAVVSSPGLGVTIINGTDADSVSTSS

MAB1187, anti-mouse TREM1 monoclonal antibody (R&D Systems, clone 174031)
Kd: 26 nM | koff: 0.0051 s⁻¹ | kon: 200000 M⁻¹ s⁻¹
